Test results from publication PMC4938799, “LD Motif Recognition by Talin: Structure of the Talin-DLC1 Complex” (Structure(London, England:1993), 2016).

Tested on: paxillin-DDK
Test: GST pull-down of transfected paxillin-DDK in 293 cells
Format: cell-based, human
Description: To investigate whether the biological effects of GST-R8 might be partly mediated via paxillin, we first confirmed that endogenous paxillin is expressed in cell lines A549, H358, and 293T (Figure S6A). […] As a positive control, HEK293 cells were co-transfected with a paxillin-DDK construct (OriGene) and GST-R8 (wild-type, R1544E and 2E mutants), followed by a GST pull-down assay.
Figure S6, related to figure 5. Binding of GST-talin R8 to endogenous paxillin is undetectable in A549 and H358 cells.
(A) The expression of endogenous paxillin in cell lines. Cell extracts were assayed by immunoblotting with anti-paxillin antibody. […]
NMR Spectroscopy - Spectra were processed with TopSpin (Bruker) and analysed using CCPN Analysis (Vranken et al., 2005). […] The changes in chemical shift of 15N-talin R8 domain were calculated from 1H,15N-HSQC spectra as Δδ=√(ΔδH2+(ΔδN*0.15)2). […]
Dissociation constants were evaluated from the 1H,15N-HSQC chemical shift changes in the titration experiments conducted using 0.1 mM 15N-talin R8 domain. […]
Concentrations of the DLC1 and RIAM peptides were determined from UV absorbance at 280 nm.
Concentrations of the paxillin peptide that lacks UV-active aromatic residues was determined by NMR from the comparison of the integral intensities of the well-separated signals of the methyl groups of the paxillin and RIAM peptides following the Eretic2 procedure of TopSpin (Bruker). […]

B1: GST-R8: GST-tagged talin R8, amino acids 1,453–1,580 (protein)
chain: NSQAGQQGLVEPTQFARANQAIQMACQSLGEPGCTQAQVLSAATIVAKHTSALCNSCRLASARTANPTAKRQFVQSAKEVANSTANLVKTIKALDGDFTEENRAQCRAATAPLLEAVDNLSAFASNPE
modifications: left off: GST, end not stated, kept
- binding of paxillin-DDK (293 cells co-transfected with paxillin-DDK and GST-R8, listed as GST-talin R8 wt): formed a complex
- binding of paxillin-DDK (293 cells co-transfected with paxillin-DDK and GST-R8, listed as wild-type GST-R8): did bind paxillin-DDK, and did so more efficiently than 2E GST-R8 talin mutant
